# Results from patent US20190134196A1 (GMAX BIOPHARM, published 2019).
# T1: human endothelin A receptor (human, UniProt P25101 21-427)
# T1 sequence: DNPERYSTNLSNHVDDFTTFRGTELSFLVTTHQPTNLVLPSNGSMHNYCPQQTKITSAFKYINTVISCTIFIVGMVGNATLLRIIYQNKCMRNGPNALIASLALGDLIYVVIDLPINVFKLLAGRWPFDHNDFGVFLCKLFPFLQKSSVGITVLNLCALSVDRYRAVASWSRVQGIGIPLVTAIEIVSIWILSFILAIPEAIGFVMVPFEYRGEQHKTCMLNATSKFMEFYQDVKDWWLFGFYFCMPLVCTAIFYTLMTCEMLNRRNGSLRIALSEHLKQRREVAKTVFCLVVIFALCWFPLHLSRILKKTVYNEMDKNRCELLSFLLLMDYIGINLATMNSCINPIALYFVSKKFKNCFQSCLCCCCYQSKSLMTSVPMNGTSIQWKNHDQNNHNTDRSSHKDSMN
# What was measured:
# [1] = target: T1, human endothelin A receptor; assay: cell-based or functional assay
# [2] = target: T1, human endothelin A receptor; assay: FACS on CHO-DHFR-ETAR cells, CHO-DHFR- cells as negative control
"IC50, calcium flux assay (inhibition of human ETAR) [1] [nM]",binding result [2],Binder
87.8,,"ETAR antibody A-9 (antibody, V domains shown) VH: EVQLQQPGGGLVQPGGSLTLSCATSGFTFSSYGMSWVRQTPAKRLELVATISTNGATANYPDSVKGRFTISRDNAKSTLYLQMRSLKSEDTAMYYCATEKGAMGYWGQGTSVTVSS VL: DVLMTQTPLSLPVSLGDQASISCRSSQNIVHSTGNTYLEWYLQKPGQSPKLLIYKVSNRFSGVPNRFRGSGSGTDFTLKITRVEAEDLGIYYCFQGSHFPFTFGSGTKLEIKR"
,binds,"ETAR antibody A-7 (antibody, V domains shown, Recombinant antibody; also called L7H7) VH: EVHLVESGGGLVQPGGSLKLSCAASGFTFSTYGMSWVRQTPDKRLELVATINTNGGTTYYRDSVKGRFTISRDNAKNTLYLQMSSLKSDDTAMYYCARDYGAMDYWGQGTSVTVSS VL: DVLMTQTPLSLPVSLGDHASISCRSSQYIVHSTGTTYLEWYLQKPGQSPQLLIYKVSNRFSGVPDRFTGSGSGTDFTLRISRVEAEDLGVYFCFQGSHFPFTFGSGTKLEIKR"
,binds,"ETAR antibody A-12 (antibody, V domains shown, Recombinant antibody; also called L12H12) VH: EVKLVESGGRLVQPGNSLRLSCATSGFTFSDYYMSWVRQTPGRALEWLSFIRNRANGYTTEYSASVKGRFTISRDNSQSILYLHMSTLRPEDSATYYCVRDSYHYGYFDVWGAGTTVTVSS VL: EIQMTQTPSSLSASLGDRVTITCSASQGINNYLNWYQQKPGGKTRLLIYYTSTLQSGVPSRFSGSGSGTHYSLTISNLEPEDIATYYCQQFSKLRTFGGGTRLEIKR"
,binds,"ETAR antibody A-2 (antibody, V domains shown, Recombinant antibody; also called L2H2) VH: QIQLVQSGAELAKPGASVRMSCETSGYTFTSYWIHWIKERPGQGLEWIGYINPDTDYSEYNQKFKDKARLTADKSSTTAYMELNSLTFDDSAVYYCASAGYYFFDFWGQGTTLTVSS VL: DIQMTQSPASLSTSVGETVTITCRASENIYSYLAWYQQRQGKSPHLLVNNAKTLAEGVPSRFSGSGSGTHFSLRISGLQPEDFGSYYCQHHYGIPFTFGGGTKLSIKR"
